Source: patent publication US8809010B2, “Method for prophylactic treatment of alzheimer's disease using inhibitors of glutaminyl cyclase and glutamate cyclases” (Probiodrug AG, priority 2003, dated 2014)

Substrate: NC(=O)CCC(N)C(=O)Nc1ccc2ccccc2c1
Experiment: Continuous spectrophotometric QC assay (glutamate dehydrogenase coupled), substrate kinetics;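 also: initial rates read on a microplate reader at 30 °C, with enzyme activity quantified against an ammonia calibration curve under the same assay conditions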
Type: biochemical
Conditions: other: Human QC
[1] = 0.05M Tris-HCl, pH 8.0, 0.5 M KCl, pH 8.0

Experimental: The initial velocities were evaluated and the enzymatic activity was determined from a standard curve of ammonia under assay conditions. All samples were measured at 30° C., using either the [sequence]luor Plus or the Sunrise (both from TECAN) reader for microplates. Kinetic data was evaluated using GraFit software.

B1: human QC (Homo sapiens) (protein)
chain: VSPSASAWPEEKNYHQPAILNSSALRQIAEGTSISEMWQNDLQPLLIERYPGSPGSYAARQHIMQRIQRLQADWVLEIDTFLSQTPYGYRSFSNIISTLNPTAKRHLVLACHYDSKYFSHWNNRVFVGATDSAVPCAMMLELARALDKKLLSLKTVSDSKPDLSLQLIFFDGEEAFLHWSPQDSLYGSRHLAAKMASTPHPPGARGTSQLHGMDLLVLLDLIGAPNPTFPNFFPNSARWFERLQAIEHELHELGLLKDHSLEGRYFQNYSYGGVIQDDHIPFLRRGVPVLHLIPSPFPEVWHTMDDNEENLDESTIDNLNKILQVFVLEYLHL
notes: The cDNA of the mature QC starting with codon 38 was fused in frame with the plasmid encoded 6× histidine tag; 6xHis; made in house; host or cells: Pichia pastoris X33 (pPICZαB, secreted); also E. coli M15 (pQE-31)
B1 showed a Km (0.05M Tris-HCl, pH 8.0) of 76 ± 4 µM, a kcat (0.05M Tris-HCl, pH 8.0) of 21.7 ± 0.5 s⁻¹ and a kcat/Km (0.05M Tris-HCl, pH 8.0) of 285000 ± 8000 M⁻¹ s⁻¹. It also gave a Km [1] of 63 ± 3 µM, a kcat [1] of 20.0 ± 0.4 s⁻¹ and a kcat/Km [1] of 318000 ± 9000 M⁻¹ s⁻¹. It also gave a Km (pH 8.8) of 70 ± 3 µM and a kcat (pH 8.8) of 20.6 ± 0.5 s⁻¹.
